This data set has as its target pro-uPA (pro-urokinase-type plasminogen activator, single-chain zymogen form of uPA), P00749.

B1: matriptase protease domain (protein)
chain: VVGGTDADEGEWPWQVSLHALGQGHICGASLISPNWLVSAAHCYIDDRGFRYSDPTQWTAFLGLHDQSQRSAPGVQERRLKRIISHPFFNDFTFDYDIALLELEKPAEYSSMVRPICLPDASHVFPAGKAIWVTGWGHTQYGGTGALILQKGEIRVINQTTCENLLPQQITPRMMCVGFLSGGVDSCQGDSGGPLSSVEADGRIFQAGVVSWGDGCAQRNKPGVYTRLPLFRDWIKENTGV
Consider B1, for which the k (first-order rate constant of pro-uPA activation) is 0.0142 min⁻¹ and the kcat/Km of pro-uPA activation amounted to 79000 M⁻¹ s⁻¹.

B2: Lys-plasmin (protein)
chain: KVYLSECKTGNGKNYRGTMSKTKNGITCQKWSSTSPHRPRFSPATHPSEGLEENYCRNPDNDPQGPWCYTTDPEKRYDYCDILECEEECMHCSGENYDGKISKTMSGLECQAWDSQSPHAHGYIPSKFPNKNLKKNYCRNPDRELRPWCFTTDPNKRWELCDIPRCTTPPPSSGPTYQCLKGTGENYRGNVAVTVSGHTCQHWSAQTPHTHNRTPENFPCKNLDENYCRNPDGKRAPWCHTTNSQVRWEYCKIPSCDSSPVSTEQLAPTAPPELTPVVQDCYHGDGQSYRGTSSTTTTGKKCQSWSSMTPHRHQKTPENYPNAGLTMNYCRNPDADKGPWCFTTDPSVRWEYCNLKKCSGTEASVVAPPPVVLLPDVETPSEEDCMFGNGKGYRGKRATTVTGTPCQDWAAQEPHRHSIFTPETNPRAGLEKNYCRNPDGDVGGPWCYTTNPRKLYDYCDVPQCAAPSFDCGKPQVEPKKCPGRVVGGCVAHPHSWPWQVSLRTRFGMHFCGGTLISPEWVLTAAHCLEKSPRPSSYKVILGAHQEVNLEPHVQEIEVSRLFLEPTRKDIALLKLSSPAVITDKVIPACLPSPNYVVADRTECFITGWGETQGTFGAGLLKEAQLPVIENKVCNRYEFLNGRVQSTELCAGHLAGGTDSCQGDSGGPLVCFEKDKYILQGVTSWGLGCARPNKPGVYVRVSRFVTWIEGVMRNN
Consider B2, for which the “cleavage of pro-uPA (SDS-PAGE, 1.5 uM pro-uPA, 15 nM plasmin)” value was “cleavage of pro-uPA by plasmin generated identical fragments and with a time-course similar to hepsin”; the k (first-order rate constant of pro-uPA activation) was 0.0815 min⁻¹; the kcat/Km of pro-uPA activation was determined as 453000 M⁻¹ s⁻¹.

For the origin of these results see US20100061996.
